Test results from patent publication US20070048219A1 (Genentech, published 2007).
Residue numbers refer to the chain shown, from its start. In names and notes the source's numbering stands. Several values for one entry are separate records, joined by “and”; a condition that tells them apart may be missing. Equal values may be shown once.

Legend:
[1] = target: T1, MGSA (UniProt P09341 35-107); assay: ELISA, cytokines coated onto plates
T1 sequence (looked up): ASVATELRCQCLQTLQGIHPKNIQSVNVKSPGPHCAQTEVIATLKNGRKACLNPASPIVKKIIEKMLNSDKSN

[2] = target: TNF (UniProt P01375 77-233, limits assumed); assay: ELISA, cytokines coated onto plates
TNF, sequence (P01375 77-233 limits assumed): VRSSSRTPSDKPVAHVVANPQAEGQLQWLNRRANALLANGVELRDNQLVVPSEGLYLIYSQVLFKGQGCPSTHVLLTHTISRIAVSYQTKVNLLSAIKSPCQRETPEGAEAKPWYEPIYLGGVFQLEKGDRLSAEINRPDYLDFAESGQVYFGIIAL

[3] = target: T2, β-TG (UniProt P02775 48-128); assay: ELISA, cytokines coated onto plates
T2 construct: also called b-TG
T2 sequence (looked up): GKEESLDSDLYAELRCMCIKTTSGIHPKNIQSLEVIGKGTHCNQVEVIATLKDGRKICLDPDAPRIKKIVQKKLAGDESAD

[4] = target: T3, PF4 (UniProt P02776 32-101); assay: ELISA, cytokines coated onto plates
T3 construct: also called platelet factor 4
T3 sequence (looked up): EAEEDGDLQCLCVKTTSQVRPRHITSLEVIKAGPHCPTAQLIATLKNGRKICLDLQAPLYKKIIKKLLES

[5] = target: T4, C5a (UniProt P01031 678-751); assay: ELISA, cytokines coated onto plates
T4 sequence (looked up): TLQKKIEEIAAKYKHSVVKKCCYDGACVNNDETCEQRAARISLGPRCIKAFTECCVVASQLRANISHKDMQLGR

[6] = target: T5, recombinant human IL-8, (ser-IL-8)72 (human, UniProt P10145 28-99, 125I label on tyrosine in the tracer form; the letters do not carry it); assay: KinExA equilibrium constant; column head Kd
T5 construct: also called human wild type IL-8; HuIL-8
T5 sequence: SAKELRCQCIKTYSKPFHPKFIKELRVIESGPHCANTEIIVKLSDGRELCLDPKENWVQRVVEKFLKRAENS
Procedure: (§1) The beads were resuspended in assay buffer (0.1% bovine serum albumin in PBS) to a final volume of 30 ml.
(§2) The equilibrium constant (Kd) was calculated using the software provided by Sapidyne Instruments Inc.

[7] = target: T5, recombinant human IL-8, (ser-IL-8)72; assay: competition: inhibition of 125I-IL-8 binding to human neutrophils
[8] = target: T5, recombinant human IL-8, (ser-IL-8)72; assay: competition binding: the antibody is varied (Cold Ligand, nM) and blocks 125I-IL-8 binding to IL-8 receptors on human neutrophils
Procedure: (§3) The periplasmic fraction was collected and passed over a Hi-Trap Protein-G column (Pharmacia, Piscataway, N.J.) followed by a desalting and concentration step. The protein was analyzed by SDS-PAGE, mass spectrometry and amino acid analysis.

[9] = target: T6, rhesus IL-8 (rhesus, UniProt P67813 23-101, limits assumed); assay: cell-based or functional assay
T6 sequence (looked up): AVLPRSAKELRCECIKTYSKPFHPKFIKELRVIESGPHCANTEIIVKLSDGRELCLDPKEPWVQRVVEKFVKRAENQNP

[10] = target: human monomeric IL-8 (human); assay: cell-based or functional assay
[11] = target: T5, recombinant human IL-8, (ser-IL-8)72; assay: competition binding: the Fab is varied (Cold Ligand, nM) and blocks 125I-IL-8 binding to IL-8 receptors on human neutrophils
Procedure: as §3

[12] = target: T5, recombinant human IL-8, (ser-IL-8)72; assay: competition: inhibition of iodinated IL-8 binding to human neutrophils
[13] = target: T5, recombinant human IL-8, (ser-IL-8)72; assay: cell-based or functional assay
[14] = target: T5, recombinant human IL-8, (ser-IL-8)72; assay: KinExA, IL-8-coated beads
Procedure: as §1, §2

[15] = target: T5, recombinant human IL-8, (ser-IL-8)72; assay: competition binding: the antibody inhibits binding of 125I-IL-8 to human neutrophils; Bound/Total against cold ligand (nM)
Procedure: Neutrophils were prepared by using Mono-Poly Resolving Medium (M-PRM) (Flow Lab. Inc., McLean. Va.). Briefly fresh, heparinized human blood was loaded onto M-PRM at a ratio of blood to medium, 3.5:3.0, and centrifuged at 300×g for 30 min at room tem perature. Neutrophils enriched at the middle layer were collected and washed once in PBS. […] The receptor binding assay was done as follows. […] The supernatant was removed by aspiration and the radioactivity associated with the pellet was counted in a gamma counter.

[16] = target: T7, rabbit IL-8 (rabbit, UniProt P19874 23-101, limits assumed); assay: cell-based or functional assay
T7 sequence (looked up): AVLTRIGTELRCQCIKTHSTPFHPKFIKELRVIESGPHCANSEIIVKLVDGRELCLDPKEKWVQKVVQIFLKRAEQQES

[17] = target: T5, recombinant human IL-8, (ser-IL-8)72; assay: KinExA, IL-8-coated beads, solution equilibrium
Procedure: as §1, §2

[18] = target: T5, recombinant human IL-8, (ser-IL-8)72; assay: competition: inhibition of IL-8 binding to human neutrophils (experiment of FIG. 54B); Fab control of FIG. 54B
[19] = target: T5, recombinant human IL-8, (ser-IL-8)72; assay: competition binding: the Fab is varied (Cold Ligand, nM) and blocks 125I-IL-8 binding to IL-8 receptors on human neutrophils; remark: listed apart in the source
From the text: The displacement curves from a representative binding experiment performed in duplicate is depicted in FIG. 38.

[20] = target: T5, recombinant human IL-8, (ser-IL-8)72; assay: competition binding: the Fab inhibits binding of 125I-IL-8 to human neutrophils; Bound/Total against antibody competitor (nM)
[21] = target: T5, recombinant human IL-8, (ser-IL-8)72; assay: as above; remark: listed apart in the source
[22] = target: T5, recombinant human IL-8, (ser-IL-8)72; assay: competition phage ELISA on plate-bound K64C IL-8
Procedure: The first step of the assay requires that the concentrations of the phage carrying the wild type and mutated antibodies be normalized, allowing a comparison of the relative affinities of each antibody. […] The plates were washed once more and stored covered at 4° C. with 200 ul of PBS/well. […] The phage were resuspended in 500 ul […] Tris-HCl pH 7.5, 1 mM EDTA and […] NaCl and held at 4° C. for no longer than 3 hours. […] The phage were next serially diluted in 3 fold steps down the plate from well A through H. The plates were incubated for I hour at 25° C. followed by nine quick washes with PBS containing 0.05% Tween-20 (PBST).

[23] = target: T5, recombinant human IL-8, (ser-IL-8)72; assay: competitive RIP with unlabeled IL-8, Scatchard analysis

B1: murine anti-rabbit IL-8 monoclonal antibody 6G4.2.5 (antibody, mouse IgG2a, V domains shown)
VH: EIQLQQSGPELMKPGASVKISCKASGYSFSSHYMHWVKQSHGKSLEWIGYIDPSNGETTYNQKFKGKATLTVDTSSSTANVHLSSLTSDDSAVYFCARGDYRYNGDWFFDVWGAGTTVTVSS
VL: DIVMTQTPLSLPVSLGDQASISCRSSQSLVHGIGNTYLHWYLQKPGQSPKLLIYKVSNRFSGVPDRFSGSGSGTDFTLRISRVEAEDLGLYFCSQSTHVPLTFGAGTKLELK
notes: full length murine IgG2a from hybridoma ATCC HB 11722; also called 6G4 murine mAb; intact murine 6G4.2.5 antibody
binding result [1]: no binding | binding result [2]: no binding | binding result [3]: no binding | binding result [4]: no binding | binding result [5]: no binding | Kd [6]: 0.35 nM | IC50 [7]: 5 nM | IC50 (read off the curve) [8]: ~7 nM

B2: humanized 6G425 F(ab)-9 (humanized 6G4V11 Fab) (Fab, V domains shown)
VH: EVQLVQSGGGLVQPGGSLRLSCAASGYSFSSHYMHWVRQAPGKGLEWVGYIDPSNGETTYNQKFKGRFTLSRDNSKNTAYLQMNSLRAEDTAVYYCARGDYRYNGDWFFDVWGQGTLVTVSS
VL: DIQMTQSPSSLSASVGDRVTITCRSSQSLVHGIGNTYLHWYQQKPGKAPKLLIYKVSNRFSGVPSRFSGSGSGTDFTLTISSLQPEDFATYYCSQSTHVPLTFGQGTKVEIKR
notes: F(ab)-6 with murine Gln for Glu at H6; also called version 11; 6G4.2.5V11
IC50, inhibition of IL-8 mediated neutrophil chemotaxis [9]: ~22 nM | IC50, inhibition of IL-8 mediated neutrophil chemotaxis [10]: ~15 nM | IC50 (read off the curve) [11]: ~6 nM

B3: humanized 6G425 F(ab)-6 (Fab, V domains shown)
VH: B2 VH with Q6E
VL: B2 VL
notes: also called version 8
IC50 [12]: 34.6 nM

B4: full length 6G4V11N35E IgG1 (antibody, V domains shown, not shown: a dimerising Fc or GST)
VH: B2 VH
VL: B2 VL with N35E
notes: made in CHO cells
IC50, inhibition of IL-8 mediated human neutrophil chemotaxis [13]: 6 nM | Kd [14]: ~0.049 nM | IC50 [7]: ~0.5 nM | IC50 [15]: 0.468 nM

B5: 6G4V11N35A Fab (Fab, V domains shown)
VH: B2 VH
VL: B2 VL with N35A
notes: also called 6G4.2.5V11N35A Fab; Fab control
IC50, blocking IL-8 mediated chemotaxis [13]: 0.8 nM | average IC50, inhibition of human IL-8 mediated neutrophil chemotaxis [13]: 2.7 nM | average IC50, inhibition of IL-8 mediated neutrophil chemotaxis [16]: 5 nM | average IC50, inhibition of IL-8 mediated neutrophil chemotaxis [10]: 1 nM | Kd [17]: ~0.114 nM | IC50 [18]: 0.802 nM | IC50 (read off the curve) [19]: 1 to 2 nM | IC50 [20]: 0.264 nM and 0.468 nM | IC50 [21]: 0.294 nM

B6: h6G4V11 Y37A (CDR-L1), phage-displayed (Fab, V domains shown)
VH: B2 VH
VL: B2 VL with Y37A
notes: alanine-scan mutant of m36
binding result [22]: no binding

B7: anti-IL-8 monoclonal antibody 5.12.14 (antibody, mouse IgG2a, V domains shown)
VH: EVQLVESGGGLVPPGGSLKLSCAASGFIFSSYGMSWVRQTPGKSLELVATINNNGDSTYYPDSVKGRFTISRDNAKNTLYLQMSSLKSEDTAMFYCARALISSATWFGYWGQGTLVTVSA
VL: DIVMTQSQKFMSTSVGDRVSVTCKASQNVGTNVAWYQQKPGQSPKALIYSSSYRYSGVPDRFTGSGSGTDFTLTISHVQSEDLADYFCQQYNIYPLTFGPGTKLELK
notes: murine IgG2a from hybridoma ATCC HB 11553
Kd [23]: 0.3 nM
